Starred links: 1 amine or outer side, 2 acyl side, 3 side chain; linkers in the order of their positions; H or OH if unused. Positions of bridges follow the written chain, without caps; N, C: chain ends. Non-standard residues stand in square brackets, D forms with d. Primed or numbered codes have the meaning given here. No end group written: not given here. TBMB′ = 1,3,5-tris(bromomethyl)benzene, 1,3,5-tris(methylene)benzene core, three thioethers to Cys; TATA = O=C(CC[*:1])N1CN(C(=O)CC[*:2])CN(C(=O)CC[*:3])C1; 2Nal = N[C@@H](Cc1ccc2ccccc2c1)C(=O)O; TBMB = c1c(C[*:1])cc(C[*:3])cc1C[*:2]; Pip = O=C(O)[C@@H]1CCCCN1; Aib = CC(C)(N)C(=O)O; Sar = CNCC(=O)O
B1: Bicycle Compound Number 69 (TATA scaffold), Ac-A(HArg)DCPLVNPLCLHPGWTCA-Sar6-(D-K) (peptide)
peptide: AXDCPLVNPLCLHPGWTCAXXXXXXK
modifications: N-terminal acetyl; X2 = HArg (homoarginine); X at 20-25 = Sar; K26 = D-Lys; 3 Cys thioether-linked to TATA scaffold

The binders below were run against T1, Human EphA2 (Ecto) (Human, UniProt P29317 24-537) (assay: FP competition; tracer Reference Compound C).
T1 construct: extracellular domain; in-house)
Experimental: (§1) Peptides without a fluorescent tag were tested in competition with a peptide with a fluorescent tag and a known Kd (Table 2). Peptides were diluted to an appropriate concentration in assay buffer as described in the direct binding assay with a maximum of 5% DMSO, then serially diluted 1 in 2. […] Measurements were conducted as for the direct binding assay, however the gain was determined prior to the first measurement. Data analysis was in Systat Sigmaplot version 12.0 where the mP values were fit to a user defined cubic equation to generate a Ki value: […]

T1 sequence (P29317 24-537): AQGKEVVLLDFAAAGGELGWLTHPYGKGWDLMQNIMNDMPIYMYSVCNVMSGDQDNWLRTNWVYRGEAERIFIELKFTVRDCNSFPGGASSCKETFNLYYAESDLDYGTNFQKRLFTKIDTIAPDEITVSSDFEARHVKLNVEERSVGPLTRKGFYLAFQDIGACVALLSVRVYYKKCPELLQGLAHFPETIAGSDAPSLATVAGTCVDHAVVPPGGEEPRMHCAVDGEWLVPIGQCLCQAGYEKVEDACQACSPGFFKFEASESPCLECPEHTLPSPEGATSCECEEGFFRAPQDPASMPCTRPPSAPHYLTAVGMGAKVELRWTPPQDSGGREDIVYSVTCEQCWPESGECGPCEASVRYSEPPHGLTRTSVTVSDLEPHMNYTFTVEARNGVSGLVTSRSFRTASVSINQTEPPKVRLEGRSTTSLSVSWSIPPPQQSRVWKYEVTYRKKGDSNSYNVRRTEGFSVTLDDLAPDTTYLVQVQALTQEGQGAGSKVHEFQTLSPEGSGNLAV

Compared with ACVPDRRCAFRDVCLTG (linker 2-8-14 via TATA) [Bicycle Compound Number 28 (TATA scaffold), ACVPDRRCAFRDVCLTG], ACPLVNPLCLYGSWKCA (linker 2-9-16 via TATA (inferred)) [Bicycle Compound Number 63 (TATA scaffold), ACPLVNPLCLYGSWKCA] is 29-fold lower in Ki: 1700 nM for the first, 59 nM for the second.

Compared with ACPLVNPLCLHPG[2Nal]TCLHG (linker 2-9-16 via TATA) [Bicycle Compound Number 79 (TATA scaffold), ACPLVNPLCLHPG(2Nal)TCLHG], ACGFMGLVPCELYCADN (linker 2-10-14 via TATA (inferred)) [Bicycle Compound Number 51 (TATA scaffold), ACGFMGLVPCELYCADN] is 1.9-fold lower in Ki: 162 nM for the first, 84.4 nM for the second.

ACGFMGLVPCNVFCA (linker 2-10-14 via TATA (inferred)) [Bicycle Compound Number 45 (TATA scaffold), ACGFMGLVPCNVFCA] and ACGFMGLVPCEVHCA (linker 2-10-14 via TATA) [Bicycle Compound Number 41 (TATA scaffold), ACGFMGLVPCEVHCA] are within 1.5-fold of each other in Ki: 142 nM for the first, 155 nM for the second.

ACPDWGKYCAYPDTICA (linker 2-9-16 via TATA) [Bicycle Compound Number 36 (TATA scaffold), ACPDWGKYCAYPDTICA] and ACGFMGLEPCVTYCA (linker 2-10-14 via TATA) [Bicycle Compound Number 43 (TATA scaffold), ACGFMGLEPCVTYCA] are within 1.5-fold of each other in Ki: 160 nM for the first, 234 nM for the second.

Going from ACRNWGMYCAYPDTICA (linker 2-9-16 via TATA) [Bicycle Compound Number 35 (TATA scaffold), ACRNWGMYCAYPDTICA] to ACPLVNPLCLTPGWTCTNT (linker 2-9-16 via TATA) [Bicycle Compound Number 94 (TATA scaffold), ACPLVNPLCLTPGWTCTNT], the Ki falls from 282 nM to 13.2 nM (21-fold).

First: ACPLVNPLCLTSGWKCA (linker 2-9-16 via TATA (inferred)) [Bicycle Compound Number 52 (TATA scaffold), ACPLVNPLCLTSGWKCA]
Second: ACRGEWGYCAYPDTICA (linker 2-9-16 via TATA) [Bicycle Compound Number 34 (TATA scaffold), ACRGEWGYCAYPDTICA]
The Ki of the first is 3-fold lower: 115 nM for the first, 348 nM for the second. The first binds more tightly here.

RPACPLVNPLCLHPGWTCA (linker 4-11-18 via TATA) [Bicycle Compound Number 70 (TATA scaffold), RPACPLVNPLCLHPGWTCA] and RPPCPLVNPLCLHPGWTCA (linker 4-11-18 via TATA) [Bicycle Compound Number 71 (TATA scaffold), RPPCPLVNPLCLHPGWTCA] are within 1.5-fold of each other in Ki: 10.1 nM for the first, 11.1 nM for the second.

First: Ac-CPLVNPLCLHPGWTCLHG (linker 1-8-15 via TATA) [Bicycle Compound Number 74 (TATA scaffold), Ac-CPLVNPLCLHPGWTCLHG]
Second: ETVCLPDSRCAYMNVCA (linker 4-10-16 via TATA) [Bicycle Compound Number 23 (TATA scaffold), ETVCLPDSRCAYMNVCA]
The Ki of the first is 74-fold lower: 1.76 nM for the first, 130 nM for the second.

Compared with ACPLVNPLCLLDGWTCA (linker 2-9-16 via TATA (inferred)) [Bicycle Compound Number 58 (TATA scaffold), ACPLVNPLCLLDGWTCA], ACSSCWAYPDSVCA (linker 2-5-13 via TATA) [Bicycle Compound Number 38 (TATA scaffold), ACSSCWAYPDSVCA] is 10-fold higher in Ki: 38.4 nM for the first, 400 nM for the second. The first binds more tightly here.

ACTKPTGFCAYPDTICA (linker 2-9-16 via TATA) [Bicycle Compound Number 33 (TATA scaffold), ACTKPTGFCAYPDTICA] and ACPLVNPLCNLPGWTCA (linker 2-9-16 via TATA (inferred)) [Bicycle Compound Number 56 (TATA scaffold), ACPLVNPLCNLPGWTCA] are within 1.5-fold of each other in Ki: 268 nM for the first, 184 nM for the second.

ACGFMGLEPCELFCMPK (linker 2-10-14 via TATA (inferred)) [Bicycle Compound Number 47 (TATA scaffold), ACGFMGLEPCELFCMPK] and ACPLVNPLCLHPG[2Nal]SCRGQ (linker 2-9-16 via TATA) [Bicycle Compound Number 93 (TATA scaffold), ACPLVNPLCLHPG(2Nal)SCRGQ] are within 1.5-fold of each other in Ki: 185 nM for the first, 228 nM for the second.

First: B1
Second: ACPLVNPLCLMPGWGCA (linker 2-9-16 via TATA (inferred)) [Bicycle Compound Number 59 (TATA scaffold), ACPLVNPLCLMPGWGCA]
The Ki of the first is 6.5-fold lower: 17.5 nM for the first, 114 nM for the second. The first binds more tightly here.

Compared with ACPLVNPLCMMGGWKCA (linker 2-9-16 via TATA (inferred)) [Bicycle Compound Number 62 (TATA scaffold), ACPLVNPLCMMGGWKCA], ACPLVNPLCLEPGWTCAKR (linker 2-9-16 via TATA) [Bicycle Compound Number 85 (TATA scaffold), ACPLVNPLCLEPGWTCAKR] is 6.2-fold lower in Ki: 67.1 nM for the first, 10.9 nM for the second. The second binds more tightly here.

ACPLVNPLCMIGNWTCA (linker 2-9-16 via TATA (inferred)) [Bicycle Compound Number 60 (TATA scaffold), ACPLVNPLCMIGNWTCA] and ACGFMGLEPCELYCAHT (linker 2-10-14 via TATA (inferred)) [Bicycle Compound Number 49 (TATA scaffold), ACGFMGLEPCELYCAHT] are within 1.5-fold of each other in Ki: 96.2 nM for the first, 144 nM for the second.

First: Ac-CPLVNPLCLHPGWSCRGQ (linker 1-8-15 via TATA) [Bicycle Compound Number 88 (TATA scaffold), Ac-CPLVNPLCLHPGWSCRGQ]
Second: ACQSCWAYPDTYCA (linker 2-5-13 via TATA) [Bicycle Compound Number 39 (TATA scaffold), ACQSCWAYPDTYCA]
The Ki of the first is 200-fold lower: 1.64 nM for the first, 321 nM for the second.

Compared with ACVPDRRCAFQDVCDHE (linker 2-8-14 via TATA) [Bicycle Compound Number 27 (TATA scaffold), ACVPDRRCAFQDVCDHE], ACGFMGLEPCELFCA (linker 2-10-14 via TATA (inferred)) [Bicycle Compound Number 46 (TATA scaffold), ACGFMGLEPCELFCA] is 1.9-fold lower in Ki: 159 nM for the first, 81.7 nM for the second.

ACGFMGLEPCEMYCA (linker 2-10-14 via TATA (inferred)) [Bicycle Compound Number 50 (TATA scaffold), ACGFMGLEPCEMYCA] and ACGFMGLEPCELVCA (linker 2-10-14 via TATA) [Bicycle Compound Number 44 (TATA scaffold), ACGFMGLEPCELVCA] are within 1.5-fold of each other in Ki: 140 nM for the first, 127 nM for the second.

Going from ACGFMGLEPCETFCA (linker 2-10-14 via TATA) [Bicycle Compound Number 40 (TATA scaffold), ACGFMGLEPCETFCA] to ACGFMGLEPCEMVCA (linker 2-10-14 via TATA) [Bicycle Compound Number 42 (TATA scaffold), ACGFMGLEPCEMVCA], the Ki rises from 188 nM to 320 nM (1.7-fold).

Going from ACPLVNPLCLHPGWTCA (linker 2-9-16 via TATA (inferred)) [Bicycle Compound Number 64 (TATA scaffold), ACPLVNPLCLHPGWTCA] to ACPMVNPLCLHPGWICA (linker 2-9-16 via TATA (inferred)) [Bicycle Compound Number 53 (TATA scaffold), ACPMVNPLCLHPGWICA], the Ki falls from 30 nM to 15.4 nM (1.9-fold).

Going from ACPLVNPLCLHPGWSCA (linker 2-9-16 via TATA) [Bicycle Compound Number 86 (TATA scaffold), ACPLVNPLCLHPGWSCA] to ACPMVNPLCLHPGWTCA (linker 2-9-16 via TATA) [Bicycle Compound Number 97 (TATA scaffold), ACPMVNPLCLHPGWTCA], the Ki falls from 56.1 nM to 20 nM (2.8-fold).

Compared with ACPLVNPLCLHPGWRCA (linker 2-9-16 via TATA (inferred)) [Bicycle Compound Number 55 (TATA scaffold), ACPLVNPLCLHPGWRCA], ACPLVNPLCLEPGWTCA (linker 2-9-16 via TATA) [Bicycle Compound Number 84 (TATA scaffold), ACPLVNPLCLEPGWTCA] is 2.6-fold higher in Ki: 20.6 nM for the first, 53.9 nM for the second.

ACPLVNPLCLVPGWSCA (linker 2-9-16 via TATA (inferred)) [Bicycle Compound Number 57 (TATA scaffold), ACPLVNPLCLVPGWSCA] and ACPLVNPLCLAPGWTCA (linker 2-9-16 via TATA) [Bicycle Compound Number 82 (TATA scaffold), ACPLVNPLCLAPGWTCA] are within 1.5-fold of each other in Ki: 35.4 nM for the first, 46.2 nM for the second.

Going from ACPLVNPLCLHPGWICA (linker 2-9-16 via TATA (inferred)) [Bicycle Compound Number 54 (TATA scaffold), ACPLVNPLCLHPGWICA] to XXXXXXXXXXXACPLVNPLCLHPGWTCLHG (N-terminal (β-Ala)-Sar10; 3 Cys thioether-linked to TATA scaffold) [Bicycle Compound Number 75 (TATA scaffold), (β-Ala)-Sar10-ACPLVNPLCLHPGWTCLHG], the Ki falls from 15.2 nM to 2.48 nM (6.1-fold).

Compared with ACVPDRRCAFENVCVDH (linker 2-8-14 via TATA) [Bicycle Compound Number 25 (TATA scaffold), ACVPDRRCAFENVCVDH], ACPLVNPLCLMTGWSCA (linker 2-9-16 via TATA (inferred)) [Bicycle Compound Number 61 (TATA scaffold), ACPLVNPLCLMTGWSCA] is 2.5-fold higher in Ki: 97.3 nM for the first, 242 nM for the second.

Binder TPRCPLVNPLCLMPGWTCA (linker 4-11-18 via TATA) [Bicycle Compound Number 81 (TATA scaffold), TPRCPLVNPLCLMPGWTCA] has a Ki of 9.8 nM.

These binders were tested against T2, Human EphA2 (Ecto), C-terminal polyHis (Human, UniProt P29317 24-537) (assay: fluorescence polarisation competition; competitor fluorescent Compound 66).
T2 construct: extracellular domain; also called EPH receptor A2; ephrin type-A receptor 2
Experimental: as §1

T2 sequence (P29317 24-537): as the sequence (P29317 24-537) above

[Sar][Sar]ACPWG[Pip]FWCPVNRPGC (linker 4-11-18 via TBMB′, also called Compound 82) [Bicycle Compound Number 82 (TBMB scaffold)] and [Sar][Sar]ACP[2Nal]GPFWCPVNRPGC (linker 4-11-18 via TBMB, also called Compound 77) [Bicycle Compound Number 77 (TBMB scaffold)] are within 1.5-fold of each other in Ki: 497 nM for the first, 458 nM for the second.

[Sar][Sar]AC[Aib]WGPFWCPVNRPGC (linker 4-11-18 via TBMB, also called Compound 74) [Bicycle Compound Number 74 (TBMB scaffold)] and ACPWGPMWCPVNRPGCA (linker 2-9-16 via TBMB (inferred), also called Compound 46) [Bicycle Compound Number 46 (TBMB scaffold)] are within 1.5-fold of each other in Ki: 139 nM for the first, 95.8 nM for the second.

Binder [Sar][Sar]ACPWGPYWCPVNRPGC (linker 4-11-18 via TBMB′, also called Compound 91) [Bicycle Compound Number 91 (TBMB scaffold)] has a Ki of 138 nM.

Source: US11814447B2, “Peptide ligands for binding to EphA2” (BICYCLERD LIMITED, priority 2018, dated 2023)
